The record followed here is US20090297479A1.

Some results are limits rather than exact numbers.

Test [1] concerns the target syndecan-4 (SD-4), human (human) (UniProt P31431). As to the kind of experiment: cell-based or functional assay.
Test [2] deals with PD-1 on human peripheral blood CD4+ T cells (human) (UniProt Q15116). In words: cell-based or functional assay.
Chain of PD-1 on human peripheral blood CD4+ T cells (human) (Q15116 25-288): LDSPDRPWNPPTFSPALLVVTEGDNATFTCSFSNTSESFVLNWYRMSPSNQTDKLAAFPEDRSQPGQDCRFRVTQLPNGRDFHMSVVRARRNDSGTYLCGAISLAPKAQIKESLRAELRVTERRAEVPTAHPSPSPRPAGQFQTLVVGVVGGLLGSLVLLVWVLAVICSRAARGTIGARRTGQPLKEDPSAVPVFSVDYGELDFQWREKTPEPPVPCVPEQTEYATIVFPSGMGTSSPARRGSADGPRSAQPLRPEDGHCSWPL

Chain of syndecan-4 (SD-4), human (human) (P31431 19-198): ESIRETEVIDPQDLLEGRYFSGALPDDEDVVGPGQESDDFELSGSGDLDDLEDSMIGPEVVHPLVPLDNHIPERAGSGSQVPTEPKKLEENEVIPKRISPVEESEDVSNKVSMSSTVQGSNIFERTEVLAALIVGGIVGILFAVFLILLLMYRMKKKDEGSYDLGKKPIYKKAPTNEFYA
Chain of saporin-conjugated DC-HIL (human DC-HIL-Fc, biotinylated and conjugated with streptavidin-saporin) (Q14956 23-498): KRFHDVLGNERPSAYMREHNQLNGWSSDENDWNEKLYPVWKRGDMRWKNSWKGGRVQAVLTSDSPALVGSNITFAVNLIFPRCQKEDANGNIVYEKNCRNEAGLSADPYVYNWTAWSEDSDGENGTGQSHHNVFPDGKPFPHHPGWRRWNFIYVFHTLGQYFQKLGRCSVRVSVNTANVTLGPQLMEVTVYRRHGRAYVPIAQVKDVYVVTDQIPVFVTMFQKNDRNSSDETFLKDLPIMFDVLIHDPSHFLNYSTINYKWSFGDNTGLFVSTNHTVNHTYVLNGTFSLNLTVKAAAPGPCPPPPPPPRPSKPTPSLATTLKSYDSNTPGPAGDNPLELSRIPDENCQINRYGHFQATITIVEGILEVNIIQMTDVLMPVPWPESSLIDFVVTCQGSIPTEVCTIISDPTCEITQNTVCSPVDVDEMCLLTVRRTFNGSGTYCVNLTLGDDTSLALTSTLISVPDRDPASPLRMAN

In the case of “human DC-HIL-Fc (extracellular domain of human DC-HIL fused to the Fc portion of mouse IgG2a) (from UniProt Q14956 23-498) (Fc fusion)”, the IL-2 production by HUT-78 cells triggered by anti-CD3 Ab in test [1] was below 70%.
On to “saporin-conjugated DC-HIL (human DC-HIL-Fc, biotinylated and conjugated with streptavidin-saporin) (from UniProt Q14956 23-498)”, for which the proliferation (3H-thymidine) of HUT-78 cells in test [1] is 60 % reduction.
anti-PD-1 Ab (MIH4) (antibody): in test [2], the inhibition of proliferation induced by 0.3 µg/ml anti-CD3 Ab, Ab at 40 µg/ml was determined as 50 % inhibition; the reduction of T cell proliferation at 0.1 µg/ml anti-CD3 Ab turned out to be 50%; the reduction of T cell proliferation at the highest dose (3 µg/ml) of anti-CD3 Ab was found to be 10%.
